Reference: patent publication US20140341888A1

Target: EGFR-AP fusion protein (UniProt P00533)
Assay: SPR (BIAcore), EGFR-AP immobilized, antibody 1.5 nM to 100 nM

IMC-11F8 Fab, sequence (VH): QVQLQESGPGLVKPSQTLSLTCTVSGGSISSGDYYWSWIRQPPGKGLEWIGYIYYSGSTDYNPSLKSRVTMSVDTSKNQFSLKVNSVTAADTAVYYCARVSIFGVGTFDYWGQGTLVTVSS
IMC-11F8 Fab, sequence (VL): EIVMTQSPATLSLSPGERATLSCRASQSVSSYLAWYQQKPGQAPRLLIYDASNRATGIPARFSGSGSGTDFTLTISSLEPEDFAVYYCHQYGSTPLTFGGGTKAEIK

Kd: 1.78 nM | koff: 0.00367 s⁻¹ | kon: 2.29e+06 M⁻¹ s⁻¹
Substance: IMC-11F8 Fab
